Laboratory results reported in patent US20250161474A1 (SICHUAN KELUN BIOTECH BIOPHARMACEUTICAL, published 2025).

B1: ADC 49B-A-05 (bispecific antibody, human IgG1, kappa, L234A L235A)
light: DIQMTQSPSSLSASVGDRVTITCKSSQSLLYTSSQKNYLAWYQQKPGKAPKLLIYWASTRESGVPSRFSGSGSGTDFTLTISSLQPEDFATYYCQQYYAYPWTFGQGTKVEIKRTVAAPSVFIFPPSDEQLKSGTASVVCLLNNFYPREAKVQWKVDNALQSGNSQESVTEQDSKDSTYSLSSTLTLSKADYEKHKVYACEVTHQGLSSPVTKSFNRGEC
heavy: not shown
chain: AIQLTQSPSSLSASVGDRVTITCRASQDISSALVWYQQKPGKAPKLLIYDASSLESGVPSRFSGSESGTDFTLTISSLQPEDFATYYCQQFNSYPLTFGGGTKVEIKGGGGSGGGGSGGGGSQVQLVESGGGVVQPGRSLRLSCAASGFTFSTYGMHWVRQAPGKGLEWVAVIWDDGSYKYYGDSVKGRFTISRDNSKNTLYLQMNSLRAEDTAVYYCARDGITMVRGVMKDYFDYWGQGTLVTVSSGGGGDKTHTCPPCPAPEAAGGPSVFLFPPKPKDTLMISRTPEVTCVVVDVSHEDPEVKFNWYVDGVEVHNAKTKPREEQYNSTYRVVSVLTVLHQDWLNGKEYKCKVSNKALAAPIEKTISKAKGQPREPQVCTLPPSRDELTKNQVSLSCAVKGFYPSDIAVEWESNGQPENNYKTTPPVLDSDGSFFLVSKLTVDKSRWQQGNVFSCSVMHEALHNHYTQKSLSLSPGK
modifications: linker-payload A-05 on reduced Cys sulfhydryls (sites not given); DAR of the whole ADC approximately 6
B2: ADC 49B-B-01 (bispecific antibody, human IgG1, kappa, L234A L235A)
light: B1 light
heavy: not shown
chain: B1 chain
modifications: linker-payload B-01 on reduced Cys sulfhydryls (sites not given); DAR of the whole ADC approximately 6
B3: ADC 49B-A-14 (bispecific antibody, human IgG1, kappa, L234A L235A)
light: B1 light
heavy: not shown
chain: B1 chain
modifications: linker-payload A-14 on reduced Cys sulfhydryls (sites not given); DAR of the whole ADC approximately 6
B4: ADC 41B-A-05 (bispecific antibody, human IgG1, kappa, L234A L235A)
light: not shown
heavy: not shown
chain: DIQMTQSPSSLSASVGDRVTITCKSSQSLLYTSSQKNYLAWYQQKPGKAPKLLIYWASTRESGVPSRFSGSGSGTDFTLTISSLQPEDFATYYCQQYYAYPWTFGCGTKVEIKRTVAAPSVFIFPPSDEQLKSGTASVVCLLNNFYPREAKVQWKVDNALQSGNSQESVTEQDSKDSTYSLSSTLTLSKADYEKHKVYACEVTHQGLSSPVTKSFNRGECGGGGSGGGGSGGGGSGGGGSGGGGSGGGGSGGGGSGGGGSEVQLVESGGGLVQPGGSLRLSCAASGYTFTSYWLHWVRQAPGKCLEWVGMIDPSNSDTRFNPNFKDRFTISADTSKNTAYLQMNSLRAEDTAVYYCATYRSYVTPLDYWGQGTLVTVSSASTKGPSVFPLAPSSKSTSGGTAALGCLVKDYFPEPVTVSWNSGALTSGVHTFPAVLQSSGLYSLSSVVTVPSSSLGTQTYICNVNHKPSNTKVDKKVEPKSCDKTHTCPPCPAPEAAGGPSVFLFPPKPKDTLMISRTPEVTCVVVDVSHEDPEVKFNWYVDGVEVHNAKTKPREEQYNSTYRVVSVLTVLHQDWLNGKEYKCKVSNKALAAPIEKTISKAKGQPREPQVCTLPPSRDELTKNQVSLSCAVKGFYPSDIAVEWESNGQPENNYKTTPPVLDSDGSFFLVSKLTVDKSRWQQGNVFSCSVMHEALHNHYTQKSLSLSPGK
modifications: linker-payload A-05 on reduced Cys sulfhydryls (sites not given); DAR of the whole ADC approximately 8
B5: BsAb 41B (bispecific antibody, human IgG1, kappa, L234A L235A)
light: not shown
heavy: not shown
chain: B4 chain
notes: Fab-scFab-Fc (KIH) format; anti-EGFR Fab, anti-c-MET scFab; also called bispecific antibody 41B
B6: ADC 10B-A-05 (bispecific antibody, human IgG1, kappa)
light: not shown
heavy: not shown
chain: DIQMTQSPSSLSASVGDRVTITCKSSQSLLYTSSQKNYLAWYQQKPGKAPKLLIYWASTRESGVPSRFSGSGSGTDFTLTISSLQPEDFATYYCQQYYAYPWTFGQGTKVEIKGGGGSGGGGSGGGGSEVQLVESGGGLVQPGGSLRLSCAASGYTFTSYWLHWVRQAPGKGLEWVGMIDPSNSDTRFNPNFKDRFTISADTSKNTAYLQMNSLRAEDTAVYYCATYRSYVTPLDYWGQGTLVTVSSGGGGDKTHTCPPCPAPELLGGPSVFLFPPKPKDTLMISRTPEVTCVVVDVSHEDPEVKFNWYVDGVEVHNAKTKPREEQYNSTYRVVSVLTVLHQDWLNGKEYKCKVSNKALPAPIEKTISKAKGQPREPQVCTLPPSREEMTKNQVSLSCAVKGFYPSDIAVEWESNGQPENNYKTTPPVLDSDGSFFLVSKLTVDKSRWQQGNVFSCSVMHEALHNHYTQKSLSLSPGK
modifications: linker-payload A-05 on reduced Cys sulfhydryls (sites not given); DAR of the whole ADC approximately 6

Legend:
[1] = molecular target: T1, human c-MET (human, UniProt P08581 25-1390); assay: cell-based or functional assay
T1 sequence (P08581 25-1390): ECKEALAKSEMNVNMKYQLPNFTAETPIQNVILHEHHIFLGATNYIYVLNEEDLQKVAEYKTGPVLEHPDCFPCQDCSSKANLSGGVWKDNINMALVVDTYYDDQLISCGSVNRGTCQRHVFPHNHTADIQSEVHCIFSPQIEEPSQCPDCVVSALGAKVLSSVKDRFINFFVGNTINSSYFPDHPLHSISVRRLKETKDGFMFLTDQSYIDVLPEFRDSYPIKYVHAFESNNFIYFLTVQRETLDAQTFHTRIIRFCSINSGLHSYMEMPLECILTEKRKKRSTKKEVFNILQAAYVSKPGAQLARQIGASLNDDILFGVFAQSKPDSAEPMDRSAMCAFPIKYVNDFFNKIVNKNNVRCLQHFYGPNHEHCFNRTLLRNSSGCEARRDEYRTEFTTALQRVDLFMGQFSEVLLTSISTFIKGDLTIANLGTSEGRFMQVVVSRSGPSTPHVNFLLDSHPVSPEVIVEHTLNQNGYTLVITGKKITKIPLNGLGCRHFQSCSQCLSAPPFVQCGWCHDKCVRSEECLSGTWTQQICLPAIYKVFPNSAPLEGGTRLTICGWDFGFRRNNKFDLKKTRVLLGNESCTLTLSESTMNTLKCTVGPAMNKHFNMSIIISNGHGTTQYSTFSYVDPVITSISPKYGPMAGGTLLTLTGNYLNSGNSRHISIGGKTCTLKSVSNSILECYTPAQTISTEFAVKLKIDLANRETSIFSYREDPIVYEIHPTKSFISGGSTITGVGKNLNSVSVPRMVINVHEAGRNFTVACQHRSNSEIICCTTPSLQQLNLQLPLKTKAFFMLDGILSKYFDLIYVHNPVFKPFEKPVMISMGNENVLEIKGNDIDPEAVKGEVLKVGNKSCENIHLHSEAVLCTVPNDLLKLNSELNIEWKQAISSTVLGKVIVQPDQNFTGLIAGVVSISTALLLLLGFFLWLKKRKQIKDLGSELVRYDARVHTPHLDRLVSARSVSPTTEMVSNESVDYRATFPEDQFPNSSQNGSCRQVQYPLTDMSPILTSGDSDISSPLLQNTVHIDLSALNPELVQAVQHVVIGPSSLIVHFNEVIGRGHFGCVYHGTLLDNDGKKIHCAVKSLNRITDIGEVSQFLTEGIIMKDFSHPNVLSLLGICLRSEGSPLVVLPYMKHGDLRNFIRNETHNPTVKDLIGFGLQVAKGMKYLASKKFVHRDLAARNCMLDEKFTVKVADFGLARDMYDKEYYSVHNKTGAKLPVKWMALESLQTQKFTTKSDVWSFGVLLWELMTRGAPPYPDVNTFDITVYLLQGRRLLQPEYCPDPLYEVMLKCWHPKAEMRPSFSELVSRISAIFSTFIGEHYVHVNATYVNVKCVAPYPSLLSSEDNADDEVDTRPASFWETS

[2] = molecular target: T1, human c-MET; assay: flow cytometry on EBC-1 cells (highly express c-MET)
Source text: (§1) A flow cytometer (Beckman, model Cytoflex) was used to detect the interaction between anti-human EGFR/c-MET bispecific antibodies and their conjugates and human gastric cancer cells MKN45 (Nanjing Cobioer Biosciences) and human gastric cancer cells overexpressing human EGFR MKN45-EGFR (Kelun-Biotech), human lung squamous cell carcinoma EBC-1 (Nanjing Cobioer Biosciences), human lung squamous cell carcinoma EBC-1-EGFR overexpressing human EGFR (Kelun-Biotech), human non-small cell lung cancer cell HCC827 (ATCC™), and human epidermal squamous cell carcinoma cell A431 (Nanjing Cobioer Biosciences). The protocol was as follows.
(§2) The adherent cells were digested with Trypsin-EDTA solution (0.25%) (Shanghai BasalMedia) and the cell density adjusted to 4.0×10⁶ per mL. The cells were washed twice with 1% BSA and resuspended in 1% BSA solution. Then 50 μL cell suspension was added to each well of a 96-well plate (the number of cells was 2×10⁵ per well). The antibody and its conjugate were diluted with 1% BSA (final concentration 10 µg/mL, 3-fold gradient dilution, a total of 11 concentration points). Then 50 μL of the diluted antibody and ADC were added to the wells of the 96-well plate and the plate was incubated at 4° C. for 60 minutes. The wells of the 96-well plate were then washed twice with 1% BSA, 50 μL of diluted secondary antibody was added to each well, and the 96-well plate was incubated at 4° C. for 30 minutes. Then the cells were washed twice with 1% BSA, and the cells were resuspended in 200 μL of 1% BSA and subjected to flow cytometry detection.

[3] = molecular target: T1, human c-MET; assay: flow cytometry on MKN45 cells (highly express c-MET)
Source text: as §1, §2

[4] = molecular target: T2, human EGFR (human, UniProt P00533 25-1210); assay: flow cytometry on A431 cells (highly express EGFR)
T2 construct: whole, on cells; also called epidermal growth factor receptor; ErbB-1
Source text: as §1
as §2, with “The wells of the 96-well plate were then washed twice with 1% BSA, 50 μL of diluted secondary antibody was added to each well, and the 96-well plate was incubated at 4° C. for 30 minutes. Then the cells were washed twice with 1% BSA, and the cells were resuspended in 200 μL of 1% BSA and subjected to flow cytometry detection.” left out

Binder	IC50, in vitro cell killing (CCK8) on EBC-1 cells [1] [nM]	IC50, in vitro cell killing (CCK8) on MKN45 cells [1] [nM]	EC50 [2] [nM]	EC50 [3] [nM]	EC50 [4] [nM]
B1	1.08	0.68	0.95	1.58	–
B2	0.66	0.78	1.13	1.36	–
B3	2.93	0.57	1.51	1.06	–
B4	0.44	0.42	–	0.69	0.48
B5	–	–	–	1.77	1.34
B6	0.59	0.33	1.91	2.14	–
